We go through one substance from patent US20140335146A1.

The target in test [1] is collagen-exposing bone material of diaphysis (rat femur, 0.6 N hydrochloric acid for 18 hours) (rat (Wistar)). In words: depletion from supernatant, SDS-PAGE of supernatant (FIG. 4B).
Test [2] addresses collagen-exposing bone material of epiphysis (rat femur, 0.6 N hydrochloric acid for 18 hours) (rat (Wistar)). In words: depletion from supernatant, SDS-PAGE of supernatant (FIG. 3B).

As for bFGF-PKD-CBD fusion protein, the results for the amount of bone material at which the fusion protein (1.16 nmol) in the supernatant nearly disappeared in test [1] and in test [2] were 80 mg and 40 mg, respectively.
